Consider four molecules from paper PMC6026696, “A broader active site in Pyrococcus horikoshii CoA disulfide reductase accommodates larger substrates and reveals evidence of subunit asymmetry” (FEBS Open Bio, 2018).

Where a chain is given by its changes, count along the chain named. Names and notes keep the numbering of the source.

Data set [1] concerns the target T1, Pyrococcus horikoshii coenzyme A-disulfide reductase (phCoADR) (Pyrococcus horikoshii, UniProt O58308, Y65A/Y66A/P67G/H367G).
T1 construct: gene PH0572; recombinant in E. coli BL21(DE3); wild type from pET24d; quad mutant codon-optimized gene in pET21b+ with C-terminal His tag; FAD-containing homodimer
Description: X-ray crystal structure, […] Å. In kind it is binding. As to conditions: tightly bound CoA in substrate channel; mixed disulfide with C48 in oxidized enzyme (covalent).

Data set [2] has as its target T2, Pyrococcus horikoshii coenzyme A-disulfide reductase (phCoADR) (Pyrococcus horikoshii, UniProt O58308, C48S/Y65A/Y66A/P67G/H367G).
T2 construct: gene PH0572; recombinant in E. coli BL21(DE3); wild type from pET24d; quad mutant codon-optimized gene in pET21b+ with C-terminal His tag; FAD-containing homodimer
Description: anaerobic NADH titration, UV-visible spectra. In kind it is biochemical. Conditions: 50 mM potassium phosphate, pH 7.5, room temperature.

Substrate in data set [3]: CC(C)(COP(=O)(O)OP(=O)(O)OC[C@H]1O[C@@H](n2cnc3c(N)ncnc32)[C@H](O)[C@@H]1OP(=O)(O)O)[C@@H](O)C(=O)NCCC(=O)NCCSSCCNC(=O)CCNC(=O)[C@H](O)C(C)(C)COP(=O)(O)OP(=O)(O)OC[C@H]1O[C@@H](n2cnc3c(N)ncnc32)[C@H](O)[C@@H]1OP(=O)(O)O
In words: purified protein. In kind it is biochemical, Pyrococcus horikoshii. As to conditions: 100 μM NADPH, 75 °C, 50 mM potassium phosphate, pH 7.5.

Substrate in data set [4]: NC(=O)C1=CN([C@@H]2O[C@H](COP(=O)(O)OP(=O)(O)OC[C@H]3O[C@@H](n4cnc5c(N)ncnc54)[C@H](O)[C@@H]3O)[C@@H](O)[C@H]2O)C=CC1
Description: purified protein. In kind it is biochemical, Pyrococcus horikoshii. As to conditions: 100 μM CoA disulfide, 75 °C, 50 mM potassium phosphate, pH 7.5.

Substrate in data set [5]: NC(=O)C1=CN([C@@H]2O[C@H](COP(=O)(O)OP(=O)(O)OC[C@H]3O[C@@H](n4cnc5c(N)ncnc54)[C@H](OP(=O)(O)O)[C@@H]3O)[C@@H](O)[C@H]2O)C=CC1
In words: purified protein. In kind it is biochemical, Pyrococcus horikoshii. Conditions: 100 μM CoA disulfide, 75 °C, 50 mM potassium phosphate, pH 7.5.

T2 sequence (O58308 whole entry C48S/Y65A/Y66A/P67G/H367G): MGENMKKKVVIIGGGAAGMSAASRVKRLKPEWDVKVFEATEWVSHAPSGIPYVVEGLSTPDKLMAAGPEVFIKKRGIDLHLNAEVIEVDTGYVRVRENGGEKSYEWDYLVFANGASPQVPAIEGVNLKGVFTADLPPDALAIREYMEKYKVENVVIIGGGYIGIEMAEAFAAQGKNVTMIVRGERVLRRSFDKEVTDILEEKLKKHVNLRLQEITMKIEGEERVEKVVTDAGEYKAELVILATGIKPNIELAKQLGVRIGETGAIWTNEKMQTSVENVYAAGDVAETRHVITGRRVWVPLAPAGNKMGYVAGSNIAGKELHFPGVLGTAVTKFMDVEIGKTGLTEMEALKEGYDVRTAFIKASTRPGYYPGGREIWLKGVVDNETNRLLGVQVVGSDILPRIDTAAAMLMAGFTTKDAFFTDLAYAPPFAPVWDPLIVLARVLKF
T1 sequence (O58308 whole entry Y65A/Y66A/P67G/H367G): as the sequence (O58308 whole entry C48S/Y65A/Y66A/P67G/H367G) above, with S48C counted along it

Consider `CC(C)(COP(=O)(O)OP(=O)(O)OC[C@H]1O[C@@H](n2cnc3c(N)ncnc32)[C@H](O)[C@@H]1OP(=O)(O)O)[C@@H](O)C(=O)NCCC(=O)NCCS` [CoA], for which the “X-ray crystal structure, 3.6 Å” value in data set [1] is “CoA is depicted as sticks where carbon is green, nitrogen blue, oxygen red”.

For `NC(=O)C1=CN([C@@H]2O[C@H](COP(=O)(O)OP(=O)(O)OC[C@H]3O[C@@H](n4cnc5c(N)ncnc54)[C@H](O)[C@@H]3O)[C@@H](O)[C@H]2O)C=CC1` [NADH], in data set [2], the “anaerobic NADH titration, UV-visible spectra” value is reported as “Anaerobic titration of the quad‐C48S mutant showed immediate reduction of FAD”.

B1: Pyrococcus horikoshii coenzyme A-disulfide reductase (phCoADR) (Pyrococcus horikoshii OT3) (protein)
chain: MGENMKKKVVIIGGGAAGMSAASRVKRLKPEWDVKVFEATEWVSHAPCGIPYVVEGLSTPDKLMYYPPEVFIKKRGIDLHLNAEVIEVDTGYVRVRENGGEKSYEWDYLVFANGASPQVPAIEGVNLKGVFTADLPPDALAIREYMEKYKVENVVIIGGGYIGIEMAEAFAAQGKNVTMIVRGERVLRRSFDKEVTDILEEKLKKHVNLRLQEITMKIEGEERVEKVVTDAGEYKAELVILATGIKPNIELAKQLGVRIGETGAIWTNEKMQTSVENVYAAGDVAETRHVITGRRVWVPLAPAGNKMGYVAGSNIAGKELHFPGVLGTAVTKFMDVEIGKTGLTEMEALKEGYDVRTAFIKASTRPHYYPGGREIWLKGVVDNETNRLLGVQVVGSDILPRIDTAAAMLMAGFTTKDAFFTDLAYAPPFAPVWDPLIVLARVLKF
notes: recombinant in E. coli BL21(DE3); wild type from pET24d; quad mutant codon-optimized gene in pET21b+ with C-terminal His tag; FAD-containing homodimer
By Km is commonly meant the concentration of substrate that gives half-maximal velocity. Usually kcat stands for the number of substrate molecules converted per active site and unit of time at saturation. Regarding B1, the Km in “purified protein [3]” was 52 ± 1 µM; in the data set “purified protein [4]”, 73 ± 12 µM. For the same molecule, the catalytic constant (kcat) came out at 4.4 ± 1.3 s⁻¹ in the data set “purified protein [3]”, 2.3 ± 0.3 s⁻¹ in “purified protein [4]” and 5.8 ± 0.2 s⁻¹ in the data set “purified protein [5]”.

B2: Pyrococcus horikoshii coenzyme A-disulfide reductase (phCoADR) (Pyrococcus horikoshii OT3; H367G/P67G/Y65A/Y66A) (protein)
chain: B1 chain with Y65A, Y66A, P67G, H367G
notes: as for B1
Turning to B2, the results for the Km in “purified protein [3]”, in the data set “purified protein [4]” and in the data set “purified protein [5]” were 57.0 ± 6.4 µM, 75 ± 6 µM and 16.4 ± 4.9 µM, respectively. The results for the kcat in the data set “purified protein [3]”, in the data set “purified protein [4]” and in the data set “purified protein [5]” were 18.8 ± 2.8 s⁻¹, 8.1 ± 1.4 s⁻¹ and 21.6 ± 2.3 s⁻¹, respectively.
